In paper PMC6603146:

Assays:
[1] = biological target: human chemokine CCL5 (RANTES), commercial recombinant (human) (UniProt P13501); test: ELISA; 50 pg chemokine mixed in solution with 2-400 ng recombinant M3 in 110 ul, 21 C, 1.5 h with gentle shaking, then applied to DuoSet sandwich ELISA plates; drop of OD492 against chemokine without M3 = % inhibition; IC25/IC50 = M3 concentration that removes 25 or 50% of the chemokine; three independent experiments
[2] = biological target: human chemokine CXCL8 (IL-8), commercial recombinant (human); test: as above

UniProt P13501, sequence (P13501 24-91): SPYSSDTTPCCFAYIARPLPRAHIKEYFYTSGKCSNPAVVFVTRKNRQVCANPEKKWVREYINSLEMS

Substance	IC25 [1]	IC50 [1]	IC25 [2]
M3-E70A mutant of MHV-68 M3 protein, recombinant, C-terminal His-tag (natural protein)	3.5 nM	8.7 nM	11.5 nM
M3-T272G mutant of MHV-68 M3 protein, recombinant, C-terminal His-tag (natural protein)	30.2 nM	> 90 nM	42.5 nM
wild-type M3 protein of murine gammaherpesvirus 68 (MHV-68), recombinant, C-terminal His-tag (natural protein)	7.1 nM	16.2 nM	8.7 nM
